From US20240376170A1 (BRIGHT PEAK THERAPEUTICS, published 2024)
Primed or numbered codes have the meaning given here. [ ]: non-standard residue; d: D form. Ygp = O-(8x polyethylene glycol-amino)-tyrosine (Tyr, amino-capped PEG8); Yn3 = O-(9x polyethylene glycol-azido)-tyrosine (Tyr, azide-capped PEG9); Ygp″ = O-(8x polyethylene glycol-amino)-tyrosine; Yn3″ = O-(9x polyethylene glycol-azido)-tyrosine; hSer = N[C@@H](CCO)C(=O)O; Nle = CCCC[C@H](N)C(=O)O

T1: IL-2Rβγ on HEK-Blue IL-2Rβγ reporter cells (InvivoGen) (UniProt P14784 27-551; P31785 23-369, limits assumed)
T1 sequence (looked up) 1: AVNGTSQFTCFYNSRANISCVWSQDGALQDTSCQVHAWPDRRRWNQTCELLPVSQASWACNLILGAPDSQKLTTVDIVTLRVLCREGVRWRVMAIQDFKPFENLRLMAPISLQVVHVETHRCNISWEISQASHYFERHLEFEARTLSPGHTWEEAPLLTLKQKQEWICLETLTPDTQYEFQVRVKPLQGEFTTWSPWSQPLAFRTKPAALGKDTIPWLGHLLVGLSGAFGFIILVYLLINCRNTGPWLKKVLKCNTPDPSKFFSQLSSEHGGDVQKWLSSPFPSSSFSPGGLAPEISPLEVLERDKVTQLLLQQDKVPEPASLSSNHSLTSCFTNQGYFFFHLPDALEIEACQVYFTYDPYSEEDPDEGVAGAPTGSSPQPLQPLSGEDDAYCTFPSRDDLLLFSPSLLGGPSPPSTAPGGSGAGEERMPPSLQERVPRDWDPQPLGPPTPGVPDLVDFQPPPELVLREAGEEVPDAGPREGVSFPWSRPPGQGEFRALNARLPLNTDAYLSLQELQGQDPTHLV
T1 sequence (looked up) 2: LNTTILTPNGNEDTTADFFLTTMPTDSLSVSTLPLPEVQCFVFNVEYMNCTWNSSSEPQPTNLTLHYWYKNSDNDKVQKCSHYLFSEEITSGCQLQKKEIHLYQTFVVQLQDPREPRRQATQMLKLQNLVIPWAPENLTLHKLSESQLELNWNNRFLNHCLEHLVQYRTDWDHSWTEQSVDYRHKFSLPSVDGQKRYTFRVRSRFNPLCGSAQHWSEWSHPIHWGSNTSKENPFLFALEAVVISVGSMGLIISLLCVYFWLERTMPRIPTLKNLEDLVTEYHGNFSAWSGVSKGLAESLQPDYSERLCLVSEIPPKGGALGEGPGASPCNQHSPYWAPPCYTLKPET

B1: CMP-315, uPa cleaved (ligand)
chain: APTSSSTKKTQLQLEHLLLDLQKILNGINNYKNPKLTR[Nle]L[hSer][Yn3]KF[Ygp][Nle]PKKATELKHLQCLEEELKPLEEVL[hSer]LAQSKNFHLRPRDLISNINVIVLELKGSETTF[hSer]CEYADETATIVEFLNRWITFSQSIISTLT
modifications: ends and bridges not checked; also: further groups not given here, tested after uPa cleavage, remaining product not given here
B2: CMP-316, matriptase cleaved (ligand)
chain: APTSSSTKKTQLQLEHLLLDLQKILNGINNYKNPKLTR[Nle]L[hSer][Yn3]KF[Ygp][Nle]PKKATELKHLQCLEEELKPLEEVL[hSer]LAQSKNFHLRPRDLISNINVIVLELKGSETTF[hSer]CEYADETATIVEFLNRWITFSQSIISTLT
modifications: ends and bridges not checked; also: further groups not given here, tested after matriptase cleavage, remaining product not given here
B3: CMP-316, uPa cleaved (ligand)
chain: APTSSSTKKTQLQLEHLLLDLQKILNGINNYKNPKLTR[Nle]L[hSer][Yn3]KF[Ygp][Nle]PKKATELKHLQCLEEELKPLEEVL[hSer]LAQSKNFHLRPRDLISNINVIVLELKGSETTF[hSer]CEYADETATIVEFLNRWITFSQSIISTLT
modifications: ends and bridges not checked; also: further groups not given here, tested after uPa cleavage, remaining product not given here
B4: CMP-328, matriptase cleaved (ligand)
chain: APTSSSTKKTQLQLEHLLLDLQEILNGINNYKNPKLTR[Nle]L[hSer][Yn3]KF[Ygp][Nle]PKKATELKHLQCLEEELKPLEEVL[hSer]LAQSKNFHLRPRDLISNINVIVLELKGSETTF[hSer]CEYADETATIVEFLNRWITFSQSIISTLT
modifications: also: matriptase-cleaved, before the cut Lys9-Glu23 side chains bridged by peptide linker, product not given here
B5: CMP-328, uPa cleaved (ligand)
chain: APTSSSTKKTQLQLEHLLLDLQEILNGINNYKNPKLTR[Nle]L[hSer][Yn3]KF[Ygp][Nle]PKKATELKHLQCLEEELKPLEEVL[hSer]LAQSKNFHLRPRDLISNINVIVLELKGSETTF[hSer]CEYADETATIVEFLNRWITFSQSIISTLT
modifications: also: uPa-cleaved, before the cut Lys9-Glu23 side chains bridged by peptide linker, product not given here
B6: CMP-329, matriptase cleaved (ligand)
chain: APTSSSTKKTQLQLEHLLLDLQEILNGINNYKNPKLTR[Nle]L[hSer][Yn3″]KF[Ygp″][Nle]PKKATELKHLQCLEEELKPLEEVL[hSer]LAQSKNFHLRPRDLISNINVIVLELKGSETTF[hSer]CEYADETATIVEFLNRWITFSQSIISTLT
modifications: ends and bridges not checked; also: after matriptase cleavage, remnants of the Lys9–Glu23 peptide linker not given here
B7: CMP-329, uPa cleaved (ligand)
chain: APTSSSTKKTQLQLEHLLLDLQEILNGINNYKNPKLTR[Nle]L[hSer][Yn3″]KF[Ygp″][Nle]PKKATELKHLQCLEEELKPLEEVL[hSer]LAQSKNFHLRPRDLISNINVIVLELKGSETTF[hSer]CEYADETATIVEFLNRWITFSQSIISTLT
modifications: ends and bridges not checked; also: uPa-cleaved, cut in the RQRRSVVGG bridge between Lys9 and Glu23, remaining fragments not given here

Molecular target: T1, IL-2Rβγ on HEK-Blue IL-2Rβγ reporter …
Assay: cell-based or functional assay

**Q.** B1 was tested. Which “Average EC50, HEK-Blue IL-2R (CD122+, CD132+) Reporter Assay, uPa cleaved molecule” value (“Average EC50 … uPa cleaved molecule” for short) did it give?
**A.** Its value is 58.1 pM.

**Q.** Which “Average EC50, HEK-Blue IL-2R (CD122+, CD132+) Reporter Assay, Matriptase cleaved molecule” value (from here on “Average EC50 … Matriptase cleaved molecule”) does the source give for B2 here?
**A.** The value was 82.8 pM.

**Q.** With B3 as the binder, how does the “Average EC50 … uPa cleaved molecule” value read?
**A.** Its value is 88.4 pM.

**Q.** With B4 as the binder, how does the “Average EC50 … Matriptase cleaved molecule” value read?
**A.** The value was 352 pM.

**Q.** B5 was tested. Which “Average EC50 … uPa cleaved molecule” value did it give?
**A.** The value was 571 pM.

**Q.** For B6, which “Average EC50 … Matriptase cleaved molecule” value is on record?
**A.** Its value is 1470 pM.

**Q.** Which “Average EC50 … uPa cleaved molecule” value does the source give for B7 here?
**A.** The value was 1410 pM.
